Experimental data: publication PMC10720262 (Cell Reports, 2023)
Residue numbers refer to the chain shown, from its start.

B1: CL-437907 (antibody, V domains shown)
VH: QVQLVESGGGVVQPGRSLRLSCVASGFTFSHSGMHWVRQTPGKGLEWVAIIWHDGSIKYYVESVKGRFTISRDNSKNTLYLEMRSLRAEDTAVYFCVRSYSESLYDKYGMDVWGQGTTVTVSS
VL: DIQMTQSPSTLSASVGDRVTISCRASQSISSWLAWFQQKPGKAPKLLIYAASSLQSGVPSRFSGSGSGTDFTLTISSLQPDDFATYYCQQFNSYWTFGQGTKVEVK
B2: CL-441734 (antibody, V domains shown)
VH: QVQLVESGGGVVQPGRSLRLSCAASGFTFSSHGMHWVRQAPVKGLEWVAVIWYDGSNKYYADSVKGRFTISRDNSKNTLYLQMNSLRAEDTAVYYCARVEYSRSSGDYYYYGLDVWGQGTTVTVSS
VL: EIVMTQSPATLSVSPGERATLSCRASQSVSSNLAWYQQKPGQAPRLLIYGASTRATGIPARFSGSGSGTEFTLTISSLQSEDFAVYYCQQYDNWWTFGQGTKVEIK
B3: CL-442127 (antibody, V domains shown)
VH: QAQLVESGGGVVQPGKSLRLSCAASRFTFRNYGMHWVRQGPVKGLEWVALIWHDGSNKFYSDSVRDRFTISRDNSKNKLFLQMNSLTADDTALYYCVRSNYDGSGTYGWFGPWGQGTLVTVSS
VL: EIVLTQSPGTLSLSPGERATLSCRASQSVISNYLAWYQQKPGQAPRLLIYGASTRDIGIPDRFSGSGSGTDFTLTISRLEPEDFAVYFCHQYGSSFTFGPGTKVDFK
B4: CL-437492 (antibody, V domains shown)
VH: QEQLVESGGGVVQPGNSLRLSCVASGFTFSNHGMHWVRQAPGKGLEWVAIIWYDGSQKFYSDSVKGRFTISRDNSKNTLYLQMNSLRAEDTAIYYCARVDWSGNDWGWFDPWGQGTLVTVSS
VL: EIVLTQSPDTLSLSPGERATLSCRASQTLSSRHLAWYQQKPGQAPRLLIYGASSRATGIPDRFSGSGSGTDFTLTINRLEPEDFAVFYCQQYGRLWTFGQGTKVEIK
B5: CL-444592 (antibody, V domains shown)
VH: QVQLVESGGGVVQPGRSLRLSCAASGFTFSSYGMHWVRQAPGKGLEWVAVIWYDGSNKYYADSVKGRFTISRDNSKNTLYLQMNSLRAEDTAVYYCARDGNWNYNYYYGMDVWGQGTTVTVSS
VL: DIQLTQSPSFLSASVGDRVTITCWASQGISSYLAWYQQKPGKAPKLLIYAASTLQSGVPSRFSGSGSGTEFTLTISSLQPEDFATYYCQQLNSYPPTFGQGTRLEIK
B6: CL-444691 (antibody, V domains shown)
VH: QVQLVESGGGVVQPGRSLRLSCAASGFTFSNYGMHWVRQAPGKGLEWVAVIWYDGSNKFYADSVKGRFTISRDNSKNTLYLQMNSLRAEDTAVYYCARDGGYNKNSGSYGWFDPWGQGTLVTVSS
VL: DIQMTQSPSTLSASVGDRVTITCRASQSVSTWLAWYQQKPGKAPKLLIYKASSLESGVPSRFSGSGSGTEFTLTISSLQPDDFATYYCQQYNSYFTFGQGTRLEIK
B7: CL-444639 (antibody, V domains shown)
VH: QVQLVESGGGVVQPARSLRLSCAASGFTFSSYGMHWVRQAPGKGLEWVAVIWYDGSNKYYADSVKGRFTISRDNSKNTLYLQMNSLRAEDTAVYYCAKVGDFYGSGSYPHYYGMDVWGQGTTVTVSS
VL: not shown
B8: CL-441816 (antibody, V domains shown)
VH: QEQLVESGGGVVQPGRSLRLSCATSGFTFSTYGLHWVRQSPGKGLEWVTVIWYDGSNKFYADSVKGRFTISRDNSKNTLYLQMNSLRAEDTAVYYCARALYSSRWYGAFDIWGQGTMVTVSS
VL: QSVLTQPPSVSGAPGQRVTISCTGSSSNIGAGYDVHWYQLLPGTAPKLLIYGNSNRPSGVPDRFSGSKSGTSASLAITGLQAEDEADYYCQSYIRSLSGSVFGGGTKLTVL
B9: CL-437092 (antibody, V domains shown)
VH: QVQLVESGGGVVQPGGSLRLSCAASGFTLSSFGIHWVRQAPGKGLEWVALIWHDGSMKYYADSVKGRFTISRDNSKNTVDIQMNSLRVEDTAVYYCARPGIGSPGDHYTMDVWGHGTTVTVSS
VL: not shown
B10: CL-440582 (antibody, V domains shown)
VH: QVQLVESGGGVVQPGRSLRLSCAASGFTLNNYGIHWVRQAPGKGLEWLSLIWYDGSNKFYADSVKGRFTVSRDNSQNTVSLHMSSLSVDDTAVYYCARPGIGVPGDKYTMDVWGQGTTVTVSS
VL: DIQMTQSPSTLSASVGDRVTITCRASQTISAWLAWYQQKLGKAPKILIYKASILESGVPSRFSGSGSGTEFTLTINSLQPDDFATYYCQQYNYDWTFGQGTKVEIN
B11: CL-437716 (antibody, V domains shown)
VH: QVHLVESGGGVVQPGRSLRLSCAASGFIFSNSGMHWVRQVPGKGLEWVAIIWYDGSNKYYADSVKGRFTISRDNSKNTLYLQMNSLRAEDTAVYYCVRAYSSSSSYYYGMDVWGQGTTVTVSS
VL: not shown
B12: CL-438145 (antibody, V domains shown)
VH: QVQLVESGGGVVQPGRSLRLSCAASGFTFSDYGMHWVRQAPGKGLEWVAIIWYDGSNKYYAASVKDRFIISRDNFKNTLYLQMNSLRAEDTAVYYCARVNFDDSGSWDYWGQGTLATVSS
VL: DIQMTQSPSTLSASVGDRVTITCRASQNINTRLAWYQQKVGTAPKLLIYTASSLESGVPSRFSGSGSGTEFTLTISSLQPDDFATYYCQQYYRYWTFGQGTKVEIK
B13: CL-440324 (antibody, V domains shown)
VH: QVQLVESGGGVVQPGRSLRLSCAASGFTFRNHGLHWVRQAPGKGLEWVAIIWFDGSNKFYADSVKGRFTISRDNSKNTLYLQMNSLRAEDTAIYYCARVSSHDNGDYGDFDYWGQGTLVTVSS
VL: B6 VL with S28N, V29I, T31N, S77G, N92K, S93T, F95W, R102Q, L103V
B14: CL-444424 (antibody, V domains shown)
VH: QVQLVESGGGVVQPGRSLRLSCTASGFTFSNYGMHWIRQAPGKGLEWVAIIWFDGSSQYYADSVKGRFTISRDNSKNTLYLQMNSLRAEDTAVYYCVRALYDSGSLFDFWGLGTLVTVSS
VL: DIQMTQSPSTLSASVGDRVTITCRASQNISSLLAWYQQKPGKAPKLLIYKASSLESGVPSRFSGNGSGTEFTLTVSSLQPDDFATYSCLQYNNYWTFGQGTKVEIK
B15: CL-437899 (antibody, V domains shown)
VH: QEQLVESGGGVVQPGRSLRLSCEVSGFTFSNHGLHWVRQAPGKGLEWVAIIWYDGSNKFYAESVKGRFTISRDNSKNRMYLEMNSLRVEDSAVYYCVRAYSRSSSDYKYGMDVWGQGTTVTVSS
VL: DIQMTQSPSTLSASVGDRVIITCRASQSISSWLAWYQQRPGKAPELLIYKASSLETGVPSRFSGSGSGTEFTLTISSLQPDDFATYFCQQYSSYWTFGQGTKVEIK
B16: CL-444588 (antibody, V domains shown)
VH: QVQLVESGGGVVQPGRSLRLSCAASGFTFSGYGMHWVRQTPGKGLGWVALIWYDGSNKFYADSVRGRFTISRDNSKNTLYLQMNSLRAEDTAIYYCARSYPSGSRGDKYGMDVWGQGTTVTVSL
VL: B6 VL with V29I, Y36F, S63T, F95W, R102K, L103V
B17: CL-444469 (antibody, V domains shown)
VH: QVQLVESGGGVVQPGRSLRVSCEVSGLTFSNYGMHWVRQAPGKRLEWVAIIWYDGSNKYYADSVKGRFTISRDNSKNTLYLQMNSLRAEDTAVYYCARSYGSGSRGDYYGMDVWGQGTTVTVSS
VL: B15 VL with I20T, Y36F, R39K, E45K, T56S, F87Y, S92Y
B18: CL-444653 (antibody, V domains shown)
VH: QVQLVESGGGVVQPGRSLRLSCTASGFTFSTYGMHWVRQAPGKGLEWVAIIWYDGGNKFYADSVKGRFTISRDNSKDTLYLQMNSLRAEDTAVYYCAKAWYKVDDKYSMDVWGQGTTVTVSS
VL: B15 VL with I20T, R39K, E45K, T56S, S77G, F87Y, S92I, S93N
B19: CL-438096 (antibody, V domains shown)
VH: QVVLVESGGGVVQPGRSLRLSCEASGFIFSSRGMHWVRQTPGKGLEWVAIIWYDGSNKFYADSVKGRFTISRDNSKNTLYLQMNSLRAEDTAVYYCARSYRTSLDKKYGMDVWGQGTTVTVSS
VL: B15 VL with I20T, R39K, E45K, T56S, Q79H, S92N
B20: CL-437762 (antibody, V domains shown)
VH: QVQLVESGGGVVQPGRSLRLSCAASGFTFSNYGMYWVRQAPGKGLEWVAVIWYDGSNKYYADSVKGRFTISRDNSKNTLYLQMNSLRAEDTAFYYCARPQYSGSGSYFDYWGQGTLVTVSS
VL: not shown
B21: CL-440422 (antibody, V domains shown)
VH: QVQLVESGGGVVQPGRSLRLSCAASGFTFSNFGMHWVRQTPDRGLEWVAIIWFDGSNTFYTDSVKGRFTISRDNYMNTLYLQMNSLRAEDTAVYYCARSFYSDSAGSLFDYWGQGTLVTVSS
VL: DIQMTQSPSTLSASVGDRVTITCRASQNINNWVAWYQQKPGKAPKLLIYKASDLETGVPSRFSGSGSGTEFTLTISGLQPDDFATFYCLQNNHYWTFGQGTKVEIK
B22: CL-437862 (antibody, V domains shown)
VH: QVQLVESGGGVVQPGRSLRLSCAASGFTFSNSGMHWVRQVPGKGLEWVAIIWYDGGNKYYADSVKGRFTISRDNSKNTLYLQMNSLRAEDTAVYYCARAYYDILTSYDKDCCYGMDVWGQGTTVTVSS
VL: not shown
B23: CL-437934 (antibody, V domains shown)
VH: B22 VH with E6A, G10A, V40A, K43Q, A97V, D102E, S106T, D108N
VL: not shown
B24: CL-444387 (antibody, V domains shown)
VH: QVHLVESGGGVVQPGRSLRLSCVASGFSFSSYGMHWVRQAPGKGLEWVAIIWYDGSYTYYADSVKGRFTISRDNSKNTLYLQMNSLRVEDTAVYYCAKVGLSYNGRTGAFDIWGQGTMVTVSS
VL: not shown
B25: CL-444739 (antibody, V domains shown)
VH: B24 VH with Y57N, T58R, K65Q, V88A, I112V
VL: not shown

Biological target: recombinant full-length PfCSP (Plasmodium falciparum circumsporozoite protein, strain NF54) (Plasmodium falciparum NF54, UniProt P19597)
Sequence (P19597 20-375): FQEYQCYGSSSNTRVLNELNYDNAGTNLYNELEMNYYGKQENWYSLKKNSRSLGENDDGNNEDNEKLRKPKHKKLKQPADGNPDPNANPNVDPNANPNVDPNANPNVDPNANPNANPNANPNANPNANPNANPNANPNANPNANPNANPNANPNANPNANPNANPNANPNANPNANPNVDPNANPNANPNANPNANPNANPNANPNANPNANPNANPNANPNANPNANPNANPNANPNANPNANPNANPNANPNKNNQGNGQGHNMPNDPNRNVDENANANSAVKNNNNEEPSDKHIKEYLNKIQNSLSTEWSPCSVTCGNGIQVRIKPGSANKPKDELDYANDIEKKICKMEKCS

Binding result, binds:
B1
B2
B3
B4
B5
B6
B7
B8
B9
B10
B11
B12
B13
B14
B15
B16
B17
B18
B19
B20
B21
B22
B23
B24
B25
